Experimental data from the nanobody polyreactivity screen of Harvey et al. (2022).

experiment: yeast display, Sf9 membrane polyspecificity reagent, FACS + sequencing; frameworks hold sequencing errors
Outline: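 Polyreactivity labels are assigned by the sorting gate from which each nanobody was recovered. The gates were low and high (top ~1%), set on anti-HA fluorescence for expression and streptavidin fluorescence for reagent binding. Before sorting, galactose-induced (36–48 hours) yeast display cells were stained for 1 hour at 4 °C with 10% biotinylated, detergent-solubilized Sf9 membrane reagent.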

Row | Sequence | polyreactivity (PSR sort gate)
1 | QVQLVESGRGLVLAGGSLRLSCAASGFIFSYNAMGSYRLAPGKERELVAAISSSGGTTYYADSVKGRFTISRDNAKNTVYLQMNSLKPEDTAVYYCAADGRTYHHHDCGWYRYDYWGQGSQVTVSS | low polyreactivity
2 | QVQLVESGRGLVQAGCSLRLSCAASGRTFSLYAMGWYRQAPGKERELVAAITLSAGSTYYADSVKGRFTISRDNEKNTVYLQMNSLKPEDTAVYYCNTRTLVAMGYWGQGTQVTVSS | high polyreactivity
3 | QVQLVESGRGLVQAGGILRLFCAASGSTFVSYAIAWYRQAPGKERELVAAISRSGGSTYYADSVKGRFTISRDNAKNTVYLQMNSLKTEDTAVYYCAAVRYWSDYDYWGQGTKVTVSS | high polyreactivity
4 | QVQLVESGRGLVQAGGRQRLSSAASGTTFGRYAMGWTRQAPGKQRELVAAISESDGSTYYADSVKGRFTISRDNAKNTVYLQMNSLTPEDTSVYYCAAEWTHYWWYQYDYWGQGTQVTVSS | high polyreactivity
5 | QVQLVESGRGLVQAGGSLRISCAASGLILYTYAMGWYRQAPGKERELVAAITKSGGRTYYADSVKGRFTISRDNAKNTVYLQMNSLKPEDTAVYDCAARPYSRPYSFGFYYWGQGTQVTVSS | high polyreactivity
6 | QVQLVESGRGLVQAGGSLRISCAASGRIFFYYTMGWYRQAPGRERELVAAINSTGATNYADSVKGRFTISRDNAKNTVYLQMNSLKPEDTAVYYCNAGTRYIFLYPPFLGAAFDYWGQGTQVTVSS | low polyreactivity
7 | QVQLVESGRGLVQAGGSLRLICAASGLTFHRYAMGWYRQAPGKERELVAALTWRGVSTYYADSVKGRFTISRDNAKNTVYLQMNSLKPEDTAVYYCAADDYFYDPYEYWGQGTIVTVSS | high polyreactivity
8 | QVQLVESGRGLVQAGGSLRLRGAASGSTSWSNAMGWYRQAPGKERELVAAITTGASTYYADSVKGRFTSSRDNAKNTVYLQMNSLKPEDTAVYYCAADPWVLWSYYYWGQGTQVTVSS | low polyreactivity
9 | QVQLVESGRGLVQAGGSLRLSCAASASTFYYNAMGWYRQAPGKEREFVAGITSSGAGTYYADSVKGRFTISRDNAKKTVYLQMNSLKPEDTAVYYCAAVYRWEGRTYRYVYWGQGTQVTVSS | high polyreactivity
10 | QVQLVESGRGLVQAGGSLRLSCAASGFIFRTYVMGWSRQATGKERELVAAITSSGGSTYYADSVKGRFTISRDTAKNTVYLQMNSLIPEDTAVYYCNAYPVYGRYTHYGYGHWGQGTQVTVSS | high polyreactivity
11 | QVQLVESGRGLVQAGGSLRLSCAASGFTFGYYAMGWYRQAPGKERELVASISRSGGSTNYADSVKGRFTISRDNAKNTVYLQMNSLKPEDTAVYYCNKRSYWYQGRFDYWGQGTQVTVSS | high polyreactivity
12 | QVQLVESGRGLVQAGGSLRLSCAASGFTFRRYAMVWYRQAPGKERELVAAITRNGGSTYYADSVKGRFTISRDNAKNTVYFQMNRLKPEDTEVYYCNAVLYTPVYDGFDSWGQGTQVTVSS | high polyreactivity
13 | QVQLVESGRGLVQAGGSLRLSCAASGFTFYIYAMGWYRQAPGKERELVAAINFGGGGTYYADSVKGRFTISRDNAKNTVYLQMNSLKPEDTAVYYCAADYWYDYYSTEYDYWGQGTQVTVSS | low polyreactivity
14 | QVQLVESGRGLVQAGGSLRLSCAASGFTIDYYAIAWYRQAPGKERELVADISSDGSTYADSVKGRFTISRDNAKNTVYLQMNSLKPEDTAVYYCNAYLSKYFRYDYWGQGTQVTVSS | high polyreactivity
15 | QVQLVESGRGLVQAGGSLRLSCAASGIIFGSYAMGWYRQAPGKEMELVAAISRGTSTYYADSVKGRFTISRDNAKITVYLQMNSLNPEDTAVYYCAATRQEYGPHSRFVYVNYYYWGQGTQVTVSS | low polyreactivity
16 | QVQLVESGRGLVQAGGSLRLSCAASGITFRYYAMGWYRPAPGKERELVAAITRGGRTNYADSVKGRFTISRDNAKNTVYLQMNSLKPEDTAVYYCATGRDSNFGNSYYYWGQGTQVTVSS | high polyreactivity
17 | QVQLVESGRGLVQAGGSLRLSCAASGITFTGYAMGWYRQAPGKERELVAASTSGGSTTYADSVKGRFTISRDNAKNTVYLQMNSQKPEDTAVYYCGARTADYSTAEYDYWGQGTQLTVSS | low polyreactivity
